Test results from article PMC10411625, “Rationally designed stapled peptides allosterically inhibit PTBP1–RNA-binding†” (Chemical Science, 2023).
Positions of bridges follow the written chain, without caps; N, C: chain ends. Non-standard residues stand in square brackets, D forms with d. No end group written: not given here. S5 = C=CCCC[C@](C)(N)C(=O)O

B1: P-6F, FITC-labeled variant of P-6 (peptide)
chain: NQARAQAALQAVN
modifications: also: stitched hydrocarbon staple linking residues 145, 149 and 153, FITC label, place not given here

Experiments:
Details in all cases: both partners purified
[1] = molecular target: T1, PTBP1 RRM1 and 2 combined (RRM12) (human); test: fluorescence polarisation; competitive: peptide varied against RRM12 and the FAM-labelled RNA-2 tracer; Ki from loss of RNA binding
T1 construct: Methods and construct limits are not in the main text (supplementary file)

PTBP1 RRM12–L151G mutant [2] = molecular target: PTBP1 RRM12–L151G mutant (human); test: MST; microscale thermophoresis of P-6F with the PTBP1 constructs
[3] = molecular target: T2, PTBP1 RRM1 (single first RNA-recognition motif with the α3-helix) (human); test: as above
T2 chain: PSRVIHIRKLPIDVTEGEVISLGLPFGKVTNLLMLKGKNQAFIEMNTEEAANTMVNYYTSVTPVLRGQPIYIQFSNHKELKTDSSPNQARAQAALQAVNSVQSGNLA

PTBP1 RRM12–L151G mutant [4] = molecular target: PTBP1 RRM12–L151G mutant (human); test: fluorescence polarisation; direct binding: FITC-labelled P-6F titrated with the PTBP1 construct
[5] = molecular target: T2, PTBP1 RRM1 (single first …); test: as above

Binder	Ki [1] [µM]	Kd (PTBP1 RRM12–L151G mutant [2]) [µM]	Kd [3] [µM]	Kd (PTBP1 RRM12–L151G mutant [4]) [µM]	Kd [5] [µM]
NQ[S5]RAQ[S5]ALQAVN-NH2 (staple 3-7; also: staple alkene reduced) [P-2, i, i + 4 hydrocarbon-stapled peptide derived from the PTBP1 α3-helix]	11.6				
B1		44.5	98.1	20.4	18.6
